Laboratory results from the supplement of paper PMC5998384.

Key:
HeLa Kyoto [1] = test: solubility in G1/S (NP-40 vs SDS abundance) (log2 ratio); higher = more soluble; details: cell cycle stage: G1/S
HeLa Kyoto [2] = test: solubility change mitosis vs G1/S (difference of NP-40 vs SDS log2 ratios) (log2 ratio difference); higher = more soluble in mitosis
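Wherever solubility change mitosis vs G1/S (difference of NP-40 vs SDS log2 ratios) is given: synchronized HeLa Kyoto cells (double thymidine block for G1/S, nocodazole release for mitosis), protein amounts in NP-40 versus SDS lysates quantified by mass spectrometry, three biological replicates.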
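Wherever solubility in G1/S (NP-40 vs SDS abundance) is given: HeLa Kyoto cells arrested at G1/S by double thymidine block, proteins quantified by TMT10plex mass spectrometry in mild NP-40 versus SDS extracts, three biological replicates.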

| Sequence | solubility in G1/S (log2) (HeLa Kyoto [1]) | solubility change mitosis (log2) (HeLa Kyoto [2]) |
| --- | --- | --- |
| MAAAKPTLTDSLSFCLAQLAAAAGEALGGEKDPATNETPLSRALLALRTRHIKAAGGIERFRARGGLRPLLALLRRAAAAGSAPSQAGPGSAPSSAASGASSPAPASGPAPSAVSSSSPTPPVRLRKTLDLALSILADCCTEGACRTEVRRLGGILPLVTILQCMKTDSIQNRTARALGNLAMEPESCGDIHCAGAVPLLVESLTACQDSQCLQSVVRALRNLADSPQHRLALAQQGAVRPLAELLATAPDAALTLALVRALLELSRGCSRACAEQLSLGGGLGPLVSLASHPKRAVREGTILILANLCAQGLIRPALGNAGGVEVLVDELRQRRDPNGASPTSQQPLVRAVCLLCREAINRARLRDAGGLDLLMGLLRDPRASAWHPRIVAALVGFLYDTGALGRLQALGLVPLLAGQLCGEAGEEEEEGREAASWDFPEERTPERAQGGSFRSLRSWLISEGYATGPDDISPDWSPEQCPPEPMEPASPAPTPTSLRAPRTQRTPGRSPAAAIEEPWGREGPALLLLSRFSQAPDPSGALVTGPALYGLLTYVTGAPGPPSPRALRILSRLTCNPACLEAFVRSYGAALLRAWLVLGVAPDDWPAPRARPTLHSRHRELGERLLQNLTVQAESPFGVGALTHLLLSGSPEDRVACALTLPFICRKPSLWRRLLLEQGGLRLLLAALTRPAPHPLFLFFAADSLSCLQDLVSPTVSPAVPQAVPMDLDSPSPCLYEPLLGPAPVPAPDLHFLLDSGLQLPAQRAASATASPFFRALLSGSFAEAQMDLVPLRGLSPGAAWPVLHHLHGCRGCGAALGPVPPPGQPLLGSEAEEALEAAGRFLLPGLEEELEEAVGRIHLGPQGGPESVGEVFRLGRPRLAAHCARWTLGSEQCPRKRGLALVGLVEAAGEEAGPLTEALLAVVMGIELGARVPA [ARMC5] | 0.0745 | 0.0453 |
| MAAEEADVDIEGDVVAAAGAQPGSGENTASVLQKDHYLDSSWRTENGLIPWTLDNTISEENRAVIEKMLLEEEYYLSKKSQPEKVWLDQKEDDKKYMKSLQKTAKIMVHSPTKPASYSVKWTIEEKELFEQGLAKFGRRWTKISKLIGSRTVLQVKSYARQYFKNKVKCGLDKETPNQKTGHNLQVKNEDKGTKAWTPSCLRGRADPNLNAVKIEKLSDDEEVDITDEVDELSSQTPQKNSSSDLLLDFPNSKMHETNQGEFITSDSQEALFSKSSRGCLQNEKQDETLSSSEITLWTEKQSNGDKKSIELNDQKFNELIKNCNKHDGRGIIVDARQLPSPEPCEIQKNLNDNEMLFHSCQMVEESHEEEELKPPEQEIEIDRNIIQEEEKQAIPEFFEGRQAKTPERYLKIRNYILDQWEICKPKYLNKTSVRPGLKNCGDVNCIGRIHTYLELIGAINFGCEQAVYNRPQTVDKVRIRDRKDAVEAYQLAQRLQSMRTRRRRVRDPWGNWCDAKDLEGQTFEHLSAEELAKRREEEKGRPVKSLKVPRPTKSSFDPFQLIPCNFFSEEKQEPFQVKVASEALLIMDLHAHVSMAEVIGLLGGRYSEVDKVVEVCAAEPCNSLSTGLQCEMDPVSQTQASETLAVRGFSVIGWYHSHPAFDPNPSLRDIDTQAKYQSYFSRGGAKFIGMIVSPYNRNNPLPYSQITCLVISEEISPDGSYRLPYKFEVQQMLEEPQWGLVFEKTRWIIEKYRLSHSSVPMDKIFRRDSDLTCLQKLLECMRKTLSKVTNCFMAEEFLTEIENLFLSNYKSNQENGVTEENCTKELLM [MYSM1] | -0.108 | -0.109 |
| MAAENSKQFWKRSAKLPGSIQPVYGAQHPPLDPRLTKNFIKERSKVNTVPLKNKKASSFHEFARNTSDAWDIGDDEEEDFSSPSFQTLNSKVALATAAQVLENHSKLRVKPERSQSTTSDVPANYKVIKSSSDAQLSRNSSDTCLRNPLHKQQSLPLRPIIPLVARISDQNASGAPPMTVREKTRLEKFRQLLSSQNTDLDELRKCSWPGVPREVRPITWRLLSGYLPANTERRKLTLQRKREEYFGFIEQYYDSRNEEHHQDTYRQIHIDIPRTNPLIPLFQQPLVQEIFERILFIWAIRHPASGYVQGINDLVTPFFVVFLSEYVEEDVENFDVTNLSQDMLRSIEADSFWCMSKLLDGIQDNYTFAQPGIQKKVKALEELVSRIDEQVHNHFRRYEVEYLQFAFRWMNNLLMRELPLRCTIRLWDTYQSEPEGFSHFHLYVCAAFLIKWRKEILDEEDFQGLLMLLQNLPTIHWGNEEIGLLLAEAYRLKYMFADAPNHYRR [TBC1D22B] | -0.183 | -0.0568 |
| MAAFGRQVLDWHRLIPLTWACMARQTPHLGEQRRTTASLLRKLTTASNGGVIEELSCVRSNNYVQEPECRRNLVQCLLEKQGTPVVQGSLELERVMSSLLDMGFSNAHINELLSVRRGASLQQLLDIISEFILLGLNPEPVCVVLKKSPQLLKLPIMQMRKRSSYLQKLGLGEGKLKRVLYCCPEIFTMRQQDINDTVRLLKEKCLFTVQQVTKILHSCPSVLREDLGQLEYKFQYAYFRMGIKHPDIVKSEYLQYSLTKIKQRHIYLERLGRYQTPDKKGQTQIPNPLLKDILRVSEAEFLARTACTSVEEFQVFKKLLAREEEESESSTSDDKRASLDEDEDDDDEEDNDEDDNDEDDDDEDDDEAEDNDEDEDDDEEE [MTERF4] | 0.434 | -0.0189 |
| MAAIAASEVLVDSAEEGSLAAAAELAAQKREQRLRKFRELHLMRNEARKLNHQEVVEEDKRLKLPANWEAKKARLEWELKEEEKKKECAARGEDYEKVKLLEISAEDAERWERKKKRKNPDLGFSDYAAAQLRQYHRLTKQIKPDMETYERLREKHGEEFFPTSNSLLHGTHVPSTEEIDRMVIDLEKQIEKRDKYSRRRPYNDDADIDYINERNAKFNKKAERFYGKYTAEIKQNLERGTAV [SYF2] | 0.12 | 0.188 |
| MAALKEDRSYGLSCGRVSDGSKVSVFHVKLTDSALRAFESYRARQDSVSLRPSIRFQGSQGHISIPQPDCPAEARTFSFYLSNIGRDNPQGSFDCIQQYVSSHGEVHLDCLGSIQDKITVCATDDSYQKARQSMAQAEEETRSRSAIVIKAGGRYLGKKVQFRKPAPGATDAVPSRKRATPINLASAIRKSGASAVSGGSGVSQRPFRDRVLHLLALRPYRKAELLLRLQKDGLTQADKDALDGLLQQVANMSAKDGTCTLQDCMYKDVQKDWPGYSEGDQQLLKRVLVRKLCQPQSTGSLLGDPAASSPPGERGRSASPPQKRLQPPDFIDPLANKKPRISHFTQRAQPAVNGKLGVPNGREALLPTPGPPASTDTLSSSTHLPPRLEPPRAHDPLADVSNDLGHSGRDCEHGEAAAPAPTVRLGLPLLTDCAQPSRPHGSPSRSKPKKKSKKHKDKERAAEDKPRAQLPDCAPATHATPGAPADTPGLNGTCSVSSVPTSTSETPDYLLKYAAISSSEQRQSYKNDFNAEYSEYRDLHARIERITRRFTQLDAQLRQLSQGSEEYETTRGQILQEYRKIKKTNTNYSQEKHRCEYLHSKLAHIKRLIAEYDQRQLQAWP | -0.0524 | 0.218 |
| MAALTPRKRKQDSLKCDSLLHFTENLFPSPNKKHCFYQNSDKNEENLHCSQQEHFVLSALKTTEINRLPSANQGSPFKSALSTVSFYNQNKWYLNPLERKLIKESRSTCLKTNDEDKSFPIVTEKMQGKPVCSKKNNKKPQKSLTAKYQPKYRHIKPVSRNSRNSKQNRVIYKPIVEKENNCHSAENNSNAPRVLSQKIKPQVTLQGGAAFFVRKKSSLRKSSLENEPSLGRTQKSKSEVIEDSDVETVSEKKTFATRQVPKCLVLEEKLKIGLLSASSKNKEKLIKDSSDDRVSSKEHKVDKNEAFSSEDSLGENKTISPKSTVYPIFSASSVNSKRSLGEEQFSVGSVNFMKQTNIQKNTNTRDTSKKTKDQLIIDAGQKHFGATVCKSCGMIYTASNPEDEMQHVQHHHRFLEGIKYVGWKKERVVAEFWDGKIVLVLPHDPSFAIKKVEDVQELVDNELGFQQVVPKCPNKIKTFLFISDEKRVVGCLIAEPIKQAFRVLSEPIGPESPSSTECPRAWQCSDVPEPAVCGISRIWVFRLKRRKRIARRLVDTLRNCFMFGCFLSTDEIAFSDPTPDGKLFATKYCNTPNFLVYNFNS [ESCO2] | -0.994 | 0.997 |
| MAAPSLLNWRRVSSFTGPVPRARHGHRAVAIRELMIIFGGGNEGIADELHVYNTATNQWFLPAVRGDIPPGCAAHGFVCDGTRILVFGGMVEYGRYSNELYELQASRWLWKKVKPHPPPSGLPPCPRLGHSFSLYGNKCYLFGGLANESEDSNNNVPRYLNDFYELELQHGSGVVGWSIPVTKGVVPSPRESHTAVIYCKKDSGSPKMYVFGGMCGARLDDLWQLDLETMSWSKPETKGTVPLPRSLHTASVIGNKMYIFGGWVPHKGENTETSPHDCEWRCTSSFSYLNLDTTEWTTLVSDSQEDKKNSRPRPRAGHCAVAIGTRLYFWSGRDGYKKALNSQVCCKDLWYLDTEKPPAPSQVQLIKATTNSFHVKWDEVSTVEGYLLQLSTDLPYQAASSDSSAAPNMQGVRMDPHRQGSNNIVPNSINDTINSTKTEQPATKETSMKNKPDFKALTDSNAILYPSLASNASNHNSHVVDMLRKNEGPHTSANVGVLSSCLDVRTVIPETSVSSTVSSTQTMVTQQTIKTESSSTNGAVVKDETSLTTFSTKSEVDETYALPATKISRVETHATATPFSKETPSNPVATVKAGERQWCDVGIFKNNTALVSQFYLLPKGKQSISKVGNADVPDYSLLKKQDLVPGTGYRFRVAAINGCGIGPFSKISEFKTCIPGFPGAPSAVRISKNVEGIHLSWEPPTSPSGNILEYSAYLAIRTAQIQDNPSQLVFMRIYCGLKTSCIVTAGQLANAHIDYTSRPAIVFRISAKNEKGYGPATQVRWLQGNNKKAPLN [HCFC2] | -0.228 | -0.0821 |
| MAATLILEPAGRCCWDEPVRIAVRGLAPEQPVTLRASLRDEKGALFQAHARYRADTLGELDLERAPALGGSFAGLEPMGLLWALEPEKPLVRLVKRDVRTPLAVELEVLDGHDPDPGRLLCRVRHERYFLPPGVRREPVRAGRVRGTLFLPPEPGPFPGIVDMFGTGGGLLEYRASLLAGKGFAVMALAYYNYEDLPKTMETLHLEYFEEAVNYLLSHPEVKGPGVGLLGISKGGELCLSMASFLKGITAAVVINGSVANVGGTLRYKGETLPPVGVNRNRIKVTKDGYADIVDVLNSPLEGPDQKSFIPVERAESTFLFLVGQDDHNWKSEFYANEACKRLQAHGRRKPQIICYPETGHYIEPPYFPLCRASLHALVGSPIIWGGEPRAHAMAQVDAWKQLQTFFHKHLGGHEGTIPSKV [ACOT1] | 0.138 | -0.000552 |
| MAAVEAAAEPVTVVAAVGPKAKDEEEEEEEPLPPCEAVRWAPVGAVAEARPGATAFLEEATAEEPGAAPGSPPDSPGRTLRRLRAERRRLDSALLALSSHFAQVQFRLRQVVRGAPAEQQRLLRELEDFAFRGCPHVLGYEGPGDPASDEGDGLPGDRPWLRGEDQSEQEKQERLETQREKQKELILQLKTQLDDLETFAYQEGSYDSLPQSVVLERQRVIIDELIKKLDMNLNEDISSLSTEELRQRVDAAVAQIVNPARVKEQLVEQLKTQIRDLEMFINFIQDEVGSPLQTGGGHCECKAGGKTGNGCSRTGSSRTPPGNSKTKAEDVKKVRETGLHLMRRALAVLQIFAVSQFGCATGQIPPTLWQRVQADRDYSPLLKRLEVSVDRVKQLALRQQPHDHVITSANLQDLSLGGKDELTMAVRKELTVAVRDLLAHGLYASSPGMSLVMAPIACLLPAFSSAPEAMHPWELFVKYYHAKNGRAYVESPARKLSQSFALPVTGGTVVTPKQSLLTAIHMVLTEHDPFKRSADSELKALVCMALNEQRLVSWVNLICKSGSLIEPHYQPWSYMAHTGFESALNLLSRLSSLKFSLPVDLAVRQLKNIKDAF [RUNDC1] | -0.124 | -0.215 |
